For two molecules, IC50 and Kd results are on record in article PMC3589475, “Large-Scale Functional Purification of Recombinant HIV-1 Capsid” (PLoS ONE, 2013).

Assay [1] addresses T1, wild-type HIV-1 capsid protein (WT CA) (HIV-1 (pLAI.2), UniProt P03348 133-363, biotin (EZ-link Sulfo-NHS-LC-LC-biotin, 1 biotin per molecule) in the SPR only).
T1 construct: HIV-1 capsid protein (CA), the 231 residues of wild-type CA amplified from the infectious HIV-1 cDNA plasmid pLAI.2; The 5' primer added a codon for an N-terminal methionine; untagged (pET30a NdeI/XhoI, stop codon); also called CA FL; full-length wild-type capsid protein; source: E. coli BL21(DE3), purified (ammonium sulfate cut, two rounds of polymerization/depolymerization, Q-HP flow-through); …
Briefly: turbidity (absorbance at 350 nm) polymerization assay with inhibitor; 40 µM WT CA pre-incubated with inhibitor (2-fold serial dilution from 20 µM final for CAI-4), 50 mM sodium phosphate pH 7.5, 2 M NaCl, 0.005% Antifoam 204, 1% DMSO, 25°C; IC50 from initial rates. The note with it: both partners purified.

Assay [2] has as its target T1, wild-type HIV-1 capsid protein (WT CA). Description: SPR; Biacore T100; minimally biotinylated WT CA or CA 4Mu hexamer captured on neutravidin on CM5 chips, CAI injected (100 µM and 3-fold dilutions); 50 mM sodium phosphate pH 7.5, 150 mM NaCl, 0.01% P20; steady-state one-site fit. The following applies: both partners purified. In general terms: In SPR one partner is held on a chip, and binding of the other changes the refractive index at the surface.

B1: CAI-4 peptide (peptide)
peptide: ITFEDLLDYYK
notes: variant of CAI peptide with a lysine residue replacing the last two C-terminal amino acids; source: synthetic peptide, bought: AnaSpec Inc
As a reminder, the IC50 is the concentration that inhibits the measured activity by half. In turn, B1 yielded an IC50 in assay [1] of 4.7 ± 0.9 µM.

B2: CAI peptide (peptide)
peptide: ITFEDLLDYYGP
notes: source: synthetic peptide, bought: AnaSpec Inc
As a reminder, the Kd is the free concentration of one partner at which half of the binding sites on the other are occupied at equilibrium, for simple one-to-one binding. High values mean a looser complex, low ones a tighter complex. Molecule B2 registered an equilibrium dissociation constant (Kd) in assay [2] of 1.38 µM.
